The text below walks through data of patent US20210179729A1 (University of California, published 2021).

Experiment [1] deals with CDCP1 on human cells (MCF10A KRASG12V, HPAC) (human) (UniProt Q9H5V8). The experiment in a line: cell-based or functional assay.
The target of experiment [2] is CD3 on the surface of T-cells (Jurkat reporter cells) (UniProt P07766). The experiment in a line: cell-based or functional assay.
A further experiment has as its target T1, Human CDCP1 (human, UniProt Q9H5V8 30-667, limits assumed).
T1 construct: also called CUB domain-containing protein 1; SIMA135
T1 sequence (looked up): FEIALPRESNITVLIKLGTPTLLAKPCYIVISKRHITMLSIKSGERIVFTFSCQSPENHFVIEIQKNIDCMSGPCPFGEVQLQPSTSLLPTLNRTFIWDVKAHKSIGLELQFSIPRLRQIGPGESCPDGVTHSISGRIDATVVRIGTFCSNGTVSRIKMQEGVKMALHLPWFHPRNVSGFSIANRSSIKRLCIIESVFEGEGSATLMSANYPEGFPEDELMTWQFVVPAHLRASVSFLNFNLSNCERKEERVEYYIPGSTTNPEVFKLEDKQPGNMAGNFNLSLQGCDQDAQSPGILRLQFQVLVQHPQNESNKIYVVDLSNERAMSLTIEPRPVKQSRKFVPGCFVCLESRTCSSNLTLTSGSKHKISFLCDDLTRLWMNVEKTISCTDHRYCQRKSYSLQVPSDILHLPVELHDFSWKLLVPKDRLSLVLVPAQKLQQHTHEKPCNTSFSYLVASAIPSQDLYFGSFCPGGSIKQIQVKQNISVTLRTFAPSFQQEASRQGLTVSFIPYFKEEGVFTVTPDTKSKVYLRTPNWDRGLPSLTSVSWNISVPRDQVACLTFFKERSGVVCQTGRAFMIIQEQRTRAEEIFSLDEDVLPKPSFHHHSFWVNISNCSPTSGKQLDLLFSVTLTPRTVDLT
The experiment can be described thus: ELISA; column head 'ELISA~EC50 Kd (nM)'.

The target in another experiment is T2, Cynomolgus monkey CDCP1 (Cynomolgus monkey, UniProt A0A2K5VLA8 30-667).
T2 construct: construct not described
T2 sequence: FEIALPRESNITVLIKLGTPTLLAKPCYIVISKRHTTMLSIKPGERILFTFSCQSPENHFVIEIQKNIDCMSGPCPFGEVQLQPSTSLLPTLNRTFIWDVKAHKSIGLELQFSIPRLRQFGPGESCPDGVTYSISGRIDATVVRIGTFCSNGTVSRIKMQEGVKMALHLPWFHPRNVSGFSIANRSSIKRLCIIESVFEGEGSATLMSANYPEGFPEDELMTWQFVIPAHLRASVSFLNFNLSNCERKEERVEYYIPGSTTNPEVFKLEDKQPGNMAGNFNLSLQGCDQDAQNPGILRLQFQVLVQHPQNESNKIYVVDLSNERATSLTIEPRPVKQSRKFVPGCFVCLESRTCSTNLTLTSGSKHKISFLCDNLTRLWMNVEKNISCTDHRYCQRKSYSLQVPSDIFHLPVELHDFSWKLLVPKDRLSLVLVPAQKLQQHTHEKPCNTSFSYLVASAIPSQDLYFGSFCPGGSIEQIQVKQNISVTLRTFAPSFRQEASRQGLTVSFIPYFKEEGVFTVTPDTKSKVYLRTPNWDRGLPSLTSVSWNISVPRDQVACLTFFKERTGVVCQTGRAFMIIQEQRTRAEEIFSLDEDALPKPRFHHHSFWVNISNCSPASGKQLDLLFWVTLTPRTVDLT
The experiment can be described thus: ELISA; column head 'ELISA~EC50 Kd (nM)'.

A further experiment concerns the target T3, CDCP1 aas 30-367 (human, UniProt Q9H5V8 30-367).
T3 construct: range 30-367
T3 sequence (looked up): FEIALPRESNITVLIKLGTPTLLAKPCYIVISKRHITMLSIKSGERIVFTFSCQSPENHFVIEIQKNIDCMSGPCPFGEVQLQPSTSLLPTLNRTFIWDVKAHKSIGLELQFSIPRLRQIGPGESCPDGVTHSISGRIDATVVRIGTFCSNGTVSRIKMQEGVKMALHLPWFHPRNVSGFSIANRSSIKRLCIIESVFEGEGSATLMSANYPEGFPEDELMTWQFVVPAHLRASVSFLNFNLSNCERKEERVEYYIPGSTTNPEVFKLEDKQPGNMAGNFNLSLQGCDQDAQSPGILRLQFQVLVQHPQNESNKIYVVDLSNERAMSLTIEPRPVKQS
The experiment can be described thus: ELISA, CDCP1 specificity on fragments. (ELISA stands for enzyme-linked immunosorbent assay.)

The target in experiment [3] is T4, CDCP1 extracellular domain displayed on the surface of HEK293 (T-Rex-293) cells (human, UniProt Q9H5V8 30-667).
T4 construct: extracellular domain; also called CDCP1 Cell; not shown: fluorescent protein expression reporter and generic single-pass transmembrane domain
T4 sequence (looked up): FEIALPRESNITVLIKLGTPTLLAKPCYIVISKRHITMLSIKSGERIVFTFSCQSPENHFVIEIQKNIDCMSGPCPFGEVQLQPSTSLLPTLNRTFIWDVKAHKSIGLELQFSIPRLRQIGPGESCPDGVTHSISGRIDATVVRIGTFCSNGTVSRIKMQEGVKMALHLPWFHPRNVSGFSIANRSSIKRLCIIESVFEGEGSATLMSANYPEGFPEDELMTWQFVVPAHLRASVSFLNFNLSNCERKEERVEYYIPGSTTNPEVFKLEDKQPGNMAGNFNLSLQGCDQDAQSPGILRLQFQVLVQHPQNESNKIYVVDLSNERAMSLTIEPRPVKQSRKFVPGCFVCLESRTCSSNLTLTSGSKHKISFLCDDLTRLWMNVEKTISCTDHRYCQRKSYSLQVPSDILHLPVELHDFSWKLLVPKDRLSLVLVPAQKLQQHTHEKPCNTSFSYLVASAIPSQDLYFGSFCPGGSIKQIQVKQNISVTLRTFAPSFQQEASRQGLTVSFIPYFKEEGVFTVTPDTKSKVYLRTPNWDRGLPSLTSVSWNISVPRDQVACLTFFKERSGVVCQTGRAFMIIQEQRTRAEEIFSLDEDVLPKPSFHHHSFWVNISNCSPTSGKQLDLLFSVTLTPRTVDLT
The experiment can be described thus: flow cytometry, Fab on CDCP1 Cell. (In general: In flow cytometry, cells or beads pass a laser one at a time.)

Chain of CD3 on the surface of T-cells (Jurkat reporter cells) (P07766 23-207): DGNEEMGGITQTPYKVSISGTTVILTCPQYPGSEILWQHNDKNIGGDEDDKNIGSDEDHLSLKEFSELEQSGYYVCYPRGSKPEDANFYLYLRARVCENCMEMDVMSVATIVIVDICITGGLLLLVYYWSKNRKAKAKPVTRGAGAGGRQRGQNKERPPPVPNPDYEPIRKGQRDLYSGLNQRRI

As to “CDCP1 BiTE (CDCP1-002 Fab genetically fused to OKT3 anti-CD3 scFv) (bispecific antibody)”, the T-cell activation (NFAT-dependent GFP reporter, flow cytometry) in co-culture with HPAC cells at 1 nM BiTE in experiment [1] and in experiment [2] was 75% throughout.

B1: CDCP1-006 Fab (Fab, V domains shown)
VH: EVQLVESGGGLVQPGGSLRLSCAASGFNLYYSYMHWVRQAPGKGLEWVAYISPYSGSTYYADSVKGRFTISADTSKNTAYLQMNSLRAEDTAVYYCARYSYSALDYWGQGTLVTVSS
VL: DIQMTQSPSSLSASVGDRVTITCRASQSVSSAVAWYQQKPGKAPKLLIYSASSLYSGVPSRFSGSRSGTDFTLTISSLQPEDFATYYCQQSSWHYHLFTFGQGTKVEIK
notes: Tested as Fab
B1: the concentration giving a half-maximal response (EC50) in the experiment with Human CDCP1 was 29.6 nM; with Cynomolgus monkey CDCP1, 3.34 nM. In addition, the binding result with CDCP1 aas 30-367 is listed as “no binding”. The “Flow Cytometry (MFI)” value in experiment [3] came out at 52.3 MFI.

B2: CDCP1-004 Fab (Fab, V domains shown)
VH: EVQLVESGGGLVQPGGSLRLSCAASGFNISYYYMHWVRQAPGKGLEWVASIYSSYGYTSYADSVKGRFTISADTSKNTAYLQMNSLRAEDTAVYYCARVYYGFDYWGQGTLVTVSS
VL: DIQMTQSPSSLSASVGDRVTITCRASQSVSSAVAWYQQKPGKAPKLLIYSASSLYSGVPSRFSGSRSGTDFTLTISSLQPEDFATYYCQQSYYVYPITFGQGTKVEIK
notes: Tested as Fab
Regarding B2, the EC50 with Human CDCP1 turned out to be 2.37 nM; in the experiment with Cynomolgus monkey CDCP1 it was 34.9 nM. The “Flow Cytometry (MFI)” value in experiment [3] is 770 MFI.

B3: CDCP1-008 Fab (Fab, V domains shown)
VH: EVQLVESGGGLVQPGGSLRLSCAASGFNISSYYMHWVRQAPGKGLEWVASIYPYSGYTYYADSVKGRFTISADTSKNTAYLQMNSLRAEDTAVYYCARAYYAMDYWGQGTLVTVSS
VL: DIQMTQSPSSLSASVGDRVTITCRASQSVSSAVAWYQQKPGKAPKLLIYSASSLYSGVPSRFSGSRSGTDFTLTISSLQPEDFATYYCQQSYYVYPITFGQGTKVEIK
notes: Tested as Fab
Take B3: the EC50 with Human CDCP1 came to 76.2 nM; in the experiment with Cynomolgus monkey CDCP1 it was 97.1 nM. Also, the “Flow Cytometry (MFI)” value in experiment [3] is 673 MFI.

B4: CDCP1-005 Fab (Fab, V domains shown)
VH: EVQLVESGGGLVQPGGSLRLSCAASGFNISYYYIHWVRQAPGKGLEWVASIYPYYGSTYYADSVKGRFTISADTSKNTAYLQMNSLRAEDTAVYYCARAYYGFDYWGQGTLVTVSS
VL: DIQMTQSPSSLSASVGDRVTITCRASQSVSSAVAWYQQKPGKAPKLLIYSASSLYSGVPSRFSGSRSGTDFTLTISSLQPEDFATYYCQQSYWSFPITFGQGTKVEIK
notes: Tested as Fab
For B4, the “Flow Cytometry (MFI)” value in experiment [3] turned out to be 870 MFI.

B5: CDCP1-003 Fab (Fab, V domains shown)
VH: EVQLVESGGGLVQPGGSLRLSCAASGFNISYYSMHWVRQAPGKGLEWVASISPYSGYTSYADSVKGRFTISADTSKNTAYLQMNSLRAEDTAVYYCARGYYALDYWGQGTLVTVSS
VL: DIQMTQSPSSLSASVGDRVTITCRASQSVSSAVAWYQQKPGKAPKLLIYSASSLYSGVPSRFSGSRSGTDFTLTISSLQPEDFATYYCQQYYYFYPFTFGQGTKVEIK
notes: Tested as Fab
On to B5, for which the figures for the EC50 in the experiment with Human CDCP1 and in the experiment with Cynomolgus monkey CDCP1 were 65.3 nM and 666 nM, respectively. In addition, in experiment [3], the “Flow Cytometry (MFI)” value came out at 180 MFI.

B6: CDCP1-002 Fab (Fab, V domains shown)
VH: EVQLVESGGGLVQPGGSLRLSCAASGFNLSYYYIHWVRQAPGKGLEWVASIYSSSSYTSYADSVKGRFTISADTSKNTAYLQMNSLRAEDTAVYYCARAYYGFDYWGQGTLVTVSS
VL: DIQMTQSPSSLSASVGDRVTITCRASQSVSSAVAWYQQKPGKAPKLLIYSASSLYSGVPSRFSGSRSGTDFTLTISSLQPEDFATYYCQQSYYYYPITFGQGTKVEIK
notes: Tested as Fab from a synthetic Fab-phage library; Used 89Zr-labeled for PET and 125I-labeled for Bmax; also called CDCP1-4A06; CDCP1 Fab
With B6, the EC50 amounted to 0.651 nM with Human CDCP1 and 19.6 nM with Cynomolgus monkey CDCP1. The “Flow Cytometry (MFI)” value in experiment [3] is 1160 MFI.

B7: CDCP1-007 Fab (Fab, V domains shown)
VH: EVQLVESGGGLVQPGGSLRLSCAASGFNIYSYYIHWVRQAPGKGLEWVASIYPYYGYTSYADSVKGRFTISADTSKNTAYLQMNSLRAEDTAVYYCARAYYGMDYWGQGTLVTVSS
VL: DIQMTQSPSSLSASVGDRVTITCRASQSVSSAVAWYQQKPGKAPKLLIYSASSLYSGVPSRFSGSRSGTDFTLTISSLQPEDFATYYCQQSYFYWPITFGQGTKVEIK
notes: Tested as Fab
Regarding B7, the EC50 with Human CDCP1 was 18 nM; in the experiment with Cynomolgus monkey CDCP1, 22.4 nM. Moreover, the “Flow Cytometry (MFI)” value in experiment [3] was 2.33 MFI.

What is called EC50 is the concentration needed to bring the measured effect to its halfway point.
